Data as given in the DeepSol protein solubility set.

Assay: soluble on expression in E. coli; label from the status in PepcDB or PDB records

Row | Sequence | soluble on expression in E. coli
1 | MSESSEWLIYRGAGEPHDGVDRLPDPPPWRDFTSRDAAGSGDGSEDRRLGAHRHLAELHRPGAEELEMINAALYLRRPLLVTGSPGAGKSTLAHSVAYELGLGNVLRWSIVSRSELQDGLYHYDAIARLQDVQIAAQADNGPGSGTPGAVDGIGGYIRLGPLGTALLPSDKPRVLLIDELDKSDIDLPNDLLNVLEEGEFAIPELERVADRLPDRTAEVLTADGVKVPVRDGRVRCRAFPFVVLTSNGERDFPAPLMRRCIHLELGRPDHNRLATFVRAHLGDEAARAGDDLVTRFLERSRSELLATDQLLNAIYLTDAAATPSRDRLADLLIQRLDRPRLEHHHHHH | soluble
2 | MKVGVIGASEMAGSAIYKLAKQNLEIDVTGIVRHESKAKKVLGDDAKLIVGDIFALSDNILDKFDVIIDAFGTDPKNAEEHVILAKKLINLVRKNKIRVIFILGAGSLHTGDDEHLVVDDIAQMDNADTWINTPRQQLKELEYLNSIDDVDWLGISPALQFEAGPATEYIEGTDELLYNKDGDSKLTSGTMATVVIKETVDSVHHQERITIANALEHHHHHH | soluble
3 | MDTPNKDDSIIRFSVSLQQNLLDELDNRIIKNGYSSRSELVRDMIREKLVEDNWAEDNPNDESKIAVLVVIYDGGQRELNQRMIDIQHASGTHVLCTTHIHMDEHNCLETIILQGNSFEIQRLQLEIGGLRGVKFAKLTKASSFEYNE | soluble
4 | MGSDKIHHHHHHMDRWTQLQLFVLTADLGSLSKAAEQLDMSNAAASRTLSSLEERLGARLIERTTRRMWLTDAGREYHRRCTAVIAELAEADAIASEEVVNPRGVLRVTSSVSFAMMHLAPALPEFLKRYPNLTVQITATNQYQNFIESGIDIAIRTKEHEGDSCITIRRLAETRRVLAASPAYLATHGRPQKPEDLAQHNMLVYNLAVDPYLLHLRRGKEERNIAIASALDSNEGQVIVAAGRAGLGIVVQPLYIIHDDIVSGRLVPVLEDWQLPRLTINLAYQSRRYQPAKIRVFTDFLIERVKNLNLEERWMTFAA | not soluble
5 | GPGSMCVCASDCVTPMKRDTKGKLSYDMEPAEHRLSSSRSSSCNVVMTAADELAMQINDCRSLFPCIDAGSAVASIRPTSPSGRTVVARVPWTKSTGTTQTPAPEPTRCAVEVRFGYAEGFVCDEKVYEALLPLLLENGLQGAACVVDSDVSDS | not soluble
6 | APSYPEYTREEVGRHRSPEERVWVTHGTDVFDVTDFVELHPGGPDKILLAAGGALEPFWALYAVHGEPHVLELLQQYKVGELSPDEAPAAPDAQDPFAGDPPRHPGLRVNSQKPFNAEPPAELLAERFLTPNELFFTRNHLPVPAVEPSSYRLRVDGPGGGTLSLSLAELRSRFPKHEVTATLQCAGNRRSEMSRVRPVKGLPWDIGAISTARWGGARLRDVLLHAGFPEELQGEWHVCFEGLDADPGGAPYGASIPYGRALSPAADVLLAYEMNGTELPRDHGFPVRVVVPGVVGARSVKWLRRVAVSPDESPSHWQQNDFKGFSPCVDWDTVDYRTAPAIQELPVQSAVTQPRPGAAVPPGELTVKGYAWSGGGREVVRVDVSLDGGRTWKVARLMGDKAPPGRAWAWALWELTVPVEAGTELEIVCKAVDSSYNVQPDSVAPIWNLRGVLSTAWHRVRVSVQD | soluble
7 | MGHHHHHHSHMSSILPFTPPIVKRLLGWKKGEQNGQEEKWCEKAVKSLVKKLKKTGQLDELEKAITTQNVNTKCITIPRSLDGRLQVSHRKGLPHVIYCRLWRWPDLHSHHELRAMELCEFAFNMKKDEVCVNPYHYQRVETPVLPPVLVPRHTEIPAEFPPLDDYSHSIPENTNFPAGIEPQSNIPETPPPGYLSEDGETSDHQMNHSMDAGSPNLSPNPMSPAHNNLDLQPVTYCEPAFWCSISYYELNQRVGETFHASQPSMTVDGFTDPSNSERFCLGLLSNVNRNAAVELTRRHIGRGVRLYYIGGEVFAECLSDSAIFVQSPNCNQRYGWHPATVCKIPPGCNLKIFNNQEFAALLAQSVNQGFEAVYQLTRMCTIRMSFVKGWGAEYRRQTVTSTPCWIELHLNGPLQWLDKVLTQMGSPSIRCSSVS | soluble
8 | MGSDKIHHHHHHMKIYCSKDSLITGVNTVQKAVSNKNTLPVLQGIMIRAEGQSLIFEATDLEIGIRCVVPAQVEKEGVVVLPSRLFSDLVCKLPDVLIELELQNDVINIHYNESDLSLRGYDPEEFPLLPDLFDAETFNLPVSIFKTMIKQTIFACSAEESRPVFTGCLLQIEDGSLRLIATDTHRLAYRIAEISNPEQIKFQGIIPAKTLGEIYRLLRDEDENLFIRFNQAQIVFQFGAVHLLSRLIEGQFPNYKQVIPQSCQTKVLLSARLFQDSVERASLLARDGSHTSIIKLSVDTERLSIDQTSELGKISEQMEVKKEGNDVKIAFNSKFLLDVLKIIDSEEIVFELSGSYSPGIIRPVDDPNYLYLALPVRTS | not soluble
9 | MIKNILILSSNNTGHGHKSITESLLEQFSHYPDVNVHVIDGFTLAGNFGLRIGKLYGSVTRNAKELWKLVWELSLKKPSLLNDFTEVAIKDNFLKLICNIKPDLILSVHPNFNGSVLNILEDYNIKVPFVTLLADIVSITPLWADPRADYIICPSKESKFKCLEFGVSESKLIETGFPVRQKFLKLEHHHHHH | not soluble
10 | GGEGTDAIQALIQAYFTAWNTNAPERFAEIFWPDGSWVNVVGMHWRGRDQIVFAHTAFLKTIFKDCKQELVTIEARTIAPGSALAVVTLIQDAYVTPDGRQMPRAHDRLTLLAVEREGVWRFIHGHNTIVNPDAANNDPVLRMKPA | soluble
11 | MAHHHHHHMLNPTFSLYRKTLQSYPVPPKIRHYDRRWSGSRTNPYNRQYWRVIMNENYSRPSFWVSDFRHRYLMRTGTDYQGQVPSSPQPGLYQGFSDVHKLLANHPKPQRESRHLPVLPMTPRVVFEHANEKRIDTAKKMRRDRRRIEELKTLEFWGWYMKLQRVRGRWCREQGVSSRGVYGPAVDAAELWG | not soluble
12 | MGSDKIHHHHHHMVDVEEKSQEVEYVDPTVNRVPNYEVSEKAFLLTQSKVSIEQRKEAAEFVLAKIKEEEMAPYYKYLCEEYLVNNGQSDLEHDEKSDSLNEWIKFDQELYNELCKKNESKIKELNEKIQKLEEDDEGELEQAQAWINLGEYYAQIGDKDNAEKTLGKSLSKAISTGAKIDVMLTIARLGFFYNDQLYVKEKLEAVNSMIEKGGDWERRNRYKTYYGIHCLAVRNFKEAAKLLVDSLATFTSIELTSYESIATYASVTGLFTLERTDLKSKVIDSPELLSLISTTAALQSISSLTISLYASDYASYFPYLLETYANVLIPCKYLNRHADFFVREMRRKVYAQLLESYKTLSLKSMASAFGVSVAFLDNDLGKFIPNKQLNCVIDRVNGIVETNRPDNKNAQYHLLVKQGDGLLTKLQKYGAAVRLTGSDRV | not soluble
13 | MSLVSTRLNDSQCLVQFSCNRFAKILLGQTLIWVNPSNTRKWGKSKKVNPQITSMEPLELLKKYVRDEKLIKHCIATAAVMKSLARELGEDEEKWWTIGILHDIDYEQTQGDMEKHGLVGAEILLKEGVEEEIAEVVKRHNHMLFGDYEKPVEIALQAADSVSGLVIACALVKGGKITEVTPKTVKKKFKEKSFAAGCDRDRIRMIEKLGMPLEKLYEVAIRGLTEVKDELGLS | not soluble
14 | MAHHHHHHMFTLLCCADLAGNKVNLEIALDTFPATLRGLESDIARIFNREVEKSGAVEHNANVAEPFQVMSVFVYDDVLLRWTKLESLTQLHEYDQLYVFQPQTQWHVDVQKELPPPRPPARSRASSITGASGTLASLQVNGCASSPWPRSGISTRISAAGDIDTSHSPVPSRSPARAQLEEHRREEERLAHRLSTLRRVREHLEREAQREEEEERRRRSLETYRLLKCKEEEIWSQRDALARAEEEFRQFLAEKQRLMGQSPSP | not soluble
15 | MGTEFNGLFDEWAHTYDSFVQGEDIQYKEVFAHYEDILEDVVNKSFGNVLEFGVGTGNLTNKLLLAGRTVYGIEPSREMRMIAKEKLPKEFSITEGDFLSFEVPTSIDTIVSTYAFHHLTDDEKNVAIAKYSQLLNKGGKIVFADTIFADQDAYDKTVEAAKQRGFHQLANDLQTEYYTRIPVMQTIFENNGFHVTFTRLNHFVWVMEATKQLEHHHHHH | soluble
16 | MPHLFYGTAQNGEVIFDEREAHHMRVVRLKEGDVIEATDGNGFSYTCILKSLKKKTAAAKIVKVEEKEKEPTEKLSVVVPIGRWERTRFLIEKCVELGVDEIFFHKFERSQHEISLDKAKIVVREAAKQCKRYLFPKVSFLEKLEFSGNVITLDLDASQNLLDANLEGSITVVVGPEGGFSEKERELLRSSTTIVSLGKKILRFETAAILTVGYIALKKQKI | not soluble
17 | MFDFIGNGSAFNTERGNNSAFIKKNSSMILVDCGGTVFHRIKQLNLLQDIKNLYIIITHTHPDHIGSLGDLIFYCYYILKFKPTIIYPNKDIITDFFNIIGVGDEMYELVSDNKVNLTAPEFGDLNIEFIPASHVGVIPAYGFLIGMSDNLVYYSGDGNKLPEKNYKMAGDPLEHHHHHH | not soluble
18 | MSLSLRVRQIDRREWLLAQTATECQRHGREATLEYPTRQGMWVRLSDAEKRWSAWIKPGDWLEHVSPALAGAAVSAGAEHLVVPWLAATERPFELPVPHLSCRRLCVENPVPGSALPEGKLLHIMSDRGGLWFEHLPELPAVGGGRPKMLRWPLRFVIGSSDTQRSLLGRIGIGDVLLIRTSRAEVYCYAKKLGHFNRVEGGIIVETLDIQHIEEENNTTETAETLPGLNQLPVKLEFVLYRKNVTLAELEAMGQQQLLSLPTNAELNVEIMANGVLLGNGELVQMNDTLGVEIHEWLSESGNGEEGHHHHHH | soluble
19 | PPIILQGPANQTLAVDGTALLKCKATGDPLPVISWLKEGFTFPGRDPRATIQEQGTLQIKNLRISDTGTYTCVATSSSGETSWSAVLDVTESG | soluble
20 | MGSDKIHHHHHHMKRPISQQSVQVALGQAALPVGVLTFNKDGARESSTFAYHEAWLRSADRFEISPDLQLVQGQQFRKAPSRDDSIFPFAFADTEPDGWGCRVIARDHARRRKSAQEKGRDVPHAGLTEMDYLLGVDDLSRIGALRLADEAGNYLRSIEDGGRGTPPLLELGHLIGATRAVEMNRETAADLKYLRGRGTSLGGMRPKCTILDEDGQLAIGKFPSINDDRSVTRGEVLALHLAAAAGITVAQSRIVMSEEIPVALVRRFDRVTNGGRIPYLSAGSMLQASRQEEHAYTQIADCIIARCADPKRDLEELWRRLVFNLLITNVDDHVQNHGFLHVEHGLWRLAPAFDINPFPDKDPELKLWLNEDYGPVDSIEAVMNEARYFRLSADEAKRILGEVRNAVGDWKRVAKSAPVGMTDDDLDAFQPAFENGQTEAAAALL | not soluble
21 | MGSDKIHHHHHHMKLAKFDTQPLPHFLMESATVDYAHADIRKLAAALSSDDSTATARHCFEWVRDHIEHSMDFHREEVTCAASDVLQQGTGLCTAKSHLLVALWRANQIPAGFCYQRLTLDGPNPPYCTHGFTAVWLNGRGWYRCDARGNSKPGIHCEFTPGQENLAFSSRYDGERTYPEVWAEPWPDLLTAMEKLQNISQYRSHPIDARPPAADLCVSESAAPNME | not soluble
22 | MSLAQHPTGIHHLAFMAGDIKKHIAFFSDVMGCPLVALFDMHGVPGGLHAFLRMNDHSYFSIVQLPDVDKIPVQLGVTHAGNGARPSAPGTLQHLAFRADTEDALLALRDRIRSHGINVLGPIDHGMCRSIYFAGPDQMTLEVACSSETIDEGHHHHHH | soluble
23 | MAQSPFRRMTTPGGYQMSVAMTNCGERGWITDHTGYRYDPVDPRTGVPWPAMPPAFRDLARRAAEQGGFTGFAPDACLVNRYEPGTRLSLHQDKDELDYAAPIVSVSLGLPATFLFGGMARSDKPRRFRLVHGDVVVWGGASRLAYHGVAPLADGEHALLGRQRINLTFRKVLLEHHHHHH | soluble
